Assay results as given in patent publication US20050009743A1.

What was measured:
[1] = biological target: (CA-CTD)2, two copies of the HIV-1 CA C-terminal dimerization domain in tandem (plasmid WISP0070) (HIV-1 NL4-3); assay: Superdex 75 gel filtration, 4 mg/ml loaded, 25 mM phosphate pH 7.2, 150 mM NaCl; self-association
[2] = biological target: (CA-CTD)2, two copies of the HIV-1 CA C-terminal dimerization domain in tandem (plasmid WISP0070) (HIV-1 NL4-3); assay: equilibrium sedimentation (analytical ultracentrifugation), 22,000 rpm, 4 °C, 25 mM phosphate pH 7.0, 100 mM NaCl, 2 mM DTT; self-association
[3] = biological target: CA-NC(G94D) with the CA A42D mutation (plasmid WISP01125) (HIV-1 NL4-3); assay: self-assembly of 9 µM mutant protein with 1 µM d(TG)50, overnight at 4 °C, 500 mM NaCl, 50 mM Tris-HCl pH 8.0; light scattering at 312 nm
[4] = biological target: CA-NC(G94D) with the CA W184A/M185A mutations (plasmid WISP01127) (HIV-1 NL4-3); assay: as above
[5] = biological target: HIV-1 CA-NC (wild-type) (HIV-1 NL4-3); assay: self-assembly of 9 µM protein with 1 µM d(TG)50, overnight at 4 °C, 500 mM NaCl, 50 mM Tris-HCl pH 8.0; light scattering at 312 nm (the filing puts the higher signal down to aggregation)
[6] = biological target: HIV-1 CA-NC(G94D) protein (HIV-1 NL4-3 Gag amino acids 133-433 with the point mutation G94D; plasmid WISP9868) (HIV-1 NL4-3); assay: self-assembly of 9 µM CA-NC(G94D) with 1 µM d(TG)50, 16 h at 4 °C, 500 mM NaCl, 50 mM Tris-HCl; light scattering at 312 nm
[7] = biological target: HIV-1 CA-NC(G94D) protein (HIV-1 NL4-3 Gag amino acids 133-433 with the point mutation G94D; plasmid WISP9868) (HIV-1 NL4-3); assay: self-assembly of 9 µM protein with 1 µM d(TG)50, overnight at 4 °C, 500 mM NaCl, 50 mM Tris-HCl pH 8.0; light scattering at 312 nm
[8] = biological target: HIV-1 CA-NC(G94D) protein (HIV-1 NL4-3 Gag amino acids 133-433 with the point mutation G94D; plasmid WISP9868) (HIV-1 NL4-3); assay: self-assembly of 9 µM CA-NC(G94D) with 0.03 mg/ml d(TG)25, overnight at 4 °C, 500 mM NaCl, 50 mM Tris-HCl pH 8.0; light scattering at 312 nm
[9] = biological target: HIV-1 CA-NC(G94D) protein (HIV-1 NL4-3 Gag amino acids 133-433 with the point mutation G94D; plasmid WISP9868) (HIV-1 NL4-3); assay: self-assembly of 9 µM CA-NC(G94D) with 0.03 mg/ml d(TG)38, overnight at 4 °C, 500 mM NaCl, 50 mM Tris-HCl pH 8.0; light scattering at 312 nm
[10] = biological target: HIV-1 CA-NC(G94D) protein (HIV-1 NL4-3 Gag amino acids 133-433 with the point mutation G94D; plasmid WISP9868) (HIV-1 NL4-3); assay: self-assembly of 9 µM CA-NC(G94D) with 0.03 mg/ml d(TG)50, overnight at 4 °C, 500 mM NaCl, 50 mM Tris-HCl pH 8.0; light scattering at 312 nm
[11] = biological target: HIV-1 CA-NC(G94D) protein (HIV-1 NL4-3 Gag amino acids 133-433 with the point mutation G94D; plasmid WISP9868) (HIV-1 NL4-3); assay: self-assembly of 9 µM CA-NC(G94D) with 0.03 mg/ml random 100-base oligonucleotide d(N)100, overnight at 4 °C, 500 mM NaCl, 50 mM Tris-HCl pH 8.0; light scattering at 312 nm (only slightly above background)

Question: “(CA-CTD)2, two copies of the HIV-1 CA C-terminal dimerization domain in tandem (plasmid WISP0070)” was tested. Which apparent mass (gel filtration, oligomerization state) [1] did it give?
Answer: 59 kDa

Question: What about the Kd [2] of the same substance?
Answer: < 1000 nM

Question: “CA-NC(G94D) with the CA A42D mutation (plasmid WISP01125)” was tested. Which Abs312 (light scattering of cylinder formation) [3] did it give?
Answer: 0.025

Question: With “CA-NC(G94D) with the CA W184A/M185A mutations (plasmid WISP01127)” as the substance, how does the Abs312 (light scattering of cylinder formation) [4] read?
Answer: 0.008

Question: HIV-1 CA-NC (wild-type) was tested. Which Abs312 (light scattering of cylinder formation) [5] did it give?
Answer: 0.735

Question: With “HIV-1 CA-NC(G94D) protein (HIV-1 NL4-3 Gag amino acids 133-433 with the point mutation G94D; plasmid WISP9868)” as the substance, how does the Abs312 (light scattering of cylinder formation) [6] read?
Answer: 0.3 to 0.4

Question: What about the Abs312 (light scattering of cylinder formation) [7] of the same substance?
Answer: 0.292

Question: And the Abs312 (light scattering of cylinder formation) [8]?
Answer: 0.2

Question: And the Abs312 (light scattering of cylinder formation) [9]?
Answer: 0.279

Question: What about the Abs312 (light scattering of cylinder formation) [10] of the same substance?
Answer: 0.292

Question: What about the Abs312 (light scattering of cylinder formation) [11] of the same substance?
Answer: 0.035
